In article PMC9019090:

Target: FBXW7 (FBXW7α) (UniProt Q969H0)
Test: Co-IP and reciprocal co-IP, immunoblot
Details: reference: Flag-ERRα wild type; sites S19,S22,S26

ERRα (from UniProt P11474) Flag-ERRα 3SA (S19A+S22A+S26A)
binding against the reference: weaker
